Test system: T1, His-Tag-FGG (recombinant human fibrinogen gamma chain with N-terminal His-tag, produced in E. coli)
T1 sequence: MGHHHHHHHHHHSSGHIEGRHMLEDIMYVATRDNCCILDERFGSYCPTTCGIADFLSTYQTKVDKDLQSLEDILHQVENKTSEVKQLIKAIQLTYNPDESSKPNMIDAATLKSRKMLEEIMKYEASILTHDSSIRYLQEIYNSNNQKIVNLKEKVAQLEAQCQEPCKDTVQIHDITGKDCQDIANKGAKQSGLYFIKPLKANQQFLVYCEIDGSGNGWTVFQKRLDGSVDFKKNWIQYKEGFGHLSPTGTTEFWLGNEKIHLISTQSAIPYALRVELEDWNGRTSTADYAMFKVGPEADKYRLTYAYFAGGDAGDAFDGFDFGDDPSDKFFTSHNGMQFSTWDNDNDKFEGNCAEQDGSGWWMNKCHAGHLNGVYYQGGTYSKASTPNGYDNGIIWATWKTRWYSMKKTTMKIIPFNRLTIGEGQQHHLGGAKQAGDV

Substance: factor XIII
- SDS-PAGE analysis of polymerization (crosslinking) of FGG with factor XIII: recombinant FGG can be crosslinked by factor XIII and produces dimers (about 100 kDa) and higher molecular weight FGG structures

Reference: patent publication US20240294607
